Source: article PMC6555819, “Comprehensive study of nuclear receptor DNA binding provides a revised framework for understanding receptor specificity”
Changes are numbered by the printed parent chain.

Key:
PPARg:RXRa = PPARg:RXRa (Homo sapiens, UniProt P37231;P19793 full;full); assay: no ligand; PBM; 180 nM : 90 nM RXRa; PBS pH 7.4, 2% milk, 0.02% Triton X-100, 1 mM DTT, BSA, 0.4 mg/ml salmon testes DNA; settings: tags: His kept;His cleaved; copies: 1;1; label: surface-attached array probe
FXR:RXRa = FXR:RXRa (Homo sapiens, UniProt Q96RI1;P19793 full;full); assay: no ligand; PBM; 270 nM : 90 nM RXRa; PBS pH 7.4, 2% milk, 0.02% Triton X-100, 1 mM DTT, BSA, 0.4 mg/ml salmon testes DNA; settings: tags: His kept;His cleaved; copies: 1;1; label: surface-attached array probe
Method in brief: (§1)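 Ligand-free nuclear receptor dimers were applied to custom Agilent 4×180K protein-binding microarrays whose double-stranded probes carried direct-repeat seeds, single-nucleotide variants, half-site ablations and random human genomic background sequences in 34-nt variable regions. Incubation lasted 1 h. Binding z-scores were computed against the random background probes from regression-normalized fluorescence.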

PPARa:RXRa = PPARa:RXRa (Homo sapiens, UniProt Q07869;P19793 full;full); assay: as above; settings: tags: GST kept;His cleaved; copies: 1;1; label: surface-attached array probe
Method in brief: as §1

RARg:RXRa = RARg:RXRa (Homo sapiens, UniProt P13631;P19793 full;full); assay: as above; settings: tags: His kept;His cleaved; copies: 1;1; label: surface-attached array probe
Method in brief: as §1

RARb:RXRa = RARb:RXRa (Homo sapiens, UniProt P10826;P19793 full;full); assay: as above; settings: tags: His kept;His cleaved; copies: 1;1; label: surface-attached array probe
Method in brief: as §1

RXRa = RXRa (Homo sapiens, UniProt P19793); assay: no ligand; PBM; 180 nM; PBS pH 7.4, 2% milk, 0.02% Triton X-100, 1 mM DTT, BSA, 0.4 mg/ml salmon testes DNA; settings: tags: His cleaved; chain copies: 2; label: surface-attached array probe
Chain of RXRa (P19793 whole entry): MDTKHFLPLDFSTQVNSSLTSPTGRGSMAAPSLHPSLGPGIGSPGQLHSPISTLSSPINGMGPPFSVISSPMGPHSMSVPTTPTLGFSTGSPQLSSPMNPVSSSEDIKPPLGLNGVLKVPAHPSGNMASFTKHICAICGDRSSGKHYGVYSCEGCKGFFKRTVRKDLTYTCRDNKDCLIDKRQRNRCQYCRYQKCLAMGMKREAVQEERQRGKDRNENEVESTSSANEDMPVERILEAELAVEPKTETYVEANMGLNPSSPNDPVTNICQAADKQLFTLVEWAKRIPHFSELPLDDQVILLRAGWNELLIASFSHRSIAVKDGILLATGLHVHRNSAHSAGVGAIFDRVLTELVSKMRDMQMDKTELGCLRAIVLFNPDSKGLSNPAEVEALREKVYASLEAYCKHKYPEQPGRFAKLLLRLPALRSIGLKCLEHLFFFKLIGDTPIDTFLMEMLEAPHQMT

Chain of RARb:RXRa (P10826 whole entry, chain 1 of 2): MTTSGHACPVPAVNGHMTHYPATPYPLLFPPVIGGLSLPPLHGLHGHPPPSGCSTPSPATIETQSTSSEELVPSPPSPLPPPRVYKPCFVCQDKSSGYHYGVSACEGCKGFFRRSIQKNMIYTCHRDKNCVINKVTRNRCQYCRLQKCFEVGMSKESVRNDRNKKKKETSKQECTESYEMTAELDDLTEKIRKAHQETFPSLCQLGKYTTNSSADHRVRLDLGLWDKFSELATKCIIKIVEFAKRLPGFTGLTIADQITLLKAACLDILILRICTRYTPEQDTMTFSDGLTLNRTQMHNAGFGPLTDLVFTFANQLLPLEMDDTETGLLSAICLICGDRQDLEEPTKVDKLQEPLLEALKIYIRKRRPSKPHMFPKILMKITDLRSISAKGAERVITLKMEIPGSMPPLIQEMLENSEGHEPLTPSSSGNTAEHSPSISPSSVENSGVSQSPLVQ
Chain of RARb:RXRa (P19793 whole entry, chain 2 of 2): as the sequence (P19793 whole entry) above
Chain of PPARa:RXRa (Q07869 whole entry, chain 1 of 2): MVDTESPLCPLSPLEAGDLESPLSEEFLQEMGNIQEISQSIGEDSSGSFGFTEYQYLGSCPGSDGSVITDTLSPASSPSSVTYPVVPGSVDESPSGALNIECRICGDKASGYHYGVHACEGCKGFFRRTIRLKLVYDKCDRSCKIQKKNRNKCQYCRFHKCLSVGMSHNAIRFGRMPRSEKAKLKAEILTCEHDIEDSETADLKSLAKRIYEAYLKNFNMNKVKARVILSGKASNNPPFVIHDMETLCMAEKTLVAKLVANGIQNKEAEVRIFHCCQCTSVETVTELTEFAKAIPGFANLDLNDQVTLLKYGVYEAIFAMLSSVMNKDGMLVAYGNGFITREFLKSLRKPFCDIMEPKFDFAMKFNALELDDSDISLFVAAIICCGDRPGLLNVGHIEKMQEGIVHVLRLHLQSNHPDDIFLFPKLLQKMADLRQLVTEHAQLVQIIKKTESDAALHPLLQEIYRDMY
Chain of PPARa:RXRa (P19793 whole entry, chain 2 of 2): as the sequence (P19793 whole entry) above
Chain of PPARg:RXRa (P37231 29-505, chain 1 of 2): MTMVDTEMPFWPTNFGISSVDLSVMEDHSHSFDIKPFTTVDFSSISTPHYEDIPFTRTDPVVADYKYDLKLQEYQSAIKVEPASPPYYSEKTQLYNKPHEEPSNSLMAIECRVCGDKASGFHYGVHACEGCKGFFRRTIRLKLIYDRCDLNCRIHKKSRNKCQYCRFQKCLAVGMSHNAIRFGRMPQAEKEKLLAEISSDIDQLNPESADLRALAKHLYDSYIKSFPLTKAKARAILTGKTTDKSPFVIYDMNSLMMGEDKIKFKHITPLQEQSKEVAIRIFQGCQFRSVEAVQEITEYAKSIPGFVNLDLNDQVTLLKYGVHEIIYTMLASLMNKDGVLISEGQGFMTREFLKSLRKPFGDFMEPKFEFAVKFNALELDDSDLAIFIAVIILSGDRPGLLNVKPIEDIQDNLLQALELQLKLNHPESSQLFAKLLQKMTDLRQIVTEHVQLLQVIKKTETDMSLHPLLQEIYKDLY
Chain of PPARg:RXRa (P19793 whole entry, chain 2 of 2): as the sequence (P19793 whole entry) above
Chain of RARg:RXRa (P13631 whole entry, chain 1 of 2): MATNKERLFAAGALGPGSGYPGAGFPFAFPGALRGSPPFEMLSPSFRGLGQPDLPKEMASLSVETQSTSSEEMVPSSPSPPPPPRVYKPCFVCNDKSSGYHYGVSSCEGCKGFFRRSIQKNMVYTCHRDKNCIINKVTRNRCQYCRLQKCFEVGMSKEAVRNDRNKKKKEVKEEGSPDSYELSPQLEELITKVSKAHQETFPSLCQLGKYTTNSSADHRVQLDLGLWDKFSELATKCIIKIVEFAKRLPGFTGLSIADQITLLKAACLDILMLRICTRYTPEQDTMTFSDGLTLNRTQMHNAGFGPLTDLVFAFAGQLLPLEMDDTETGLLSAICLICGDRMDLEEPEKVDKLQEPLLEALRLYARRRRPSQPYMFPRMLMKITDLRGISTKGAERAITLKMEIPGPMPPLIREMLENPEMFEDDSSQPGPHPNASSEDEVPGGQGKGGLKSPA
Chain of RARg:RXRa (P19793 whole entry, chain 2 of 2): as the sequence (P19793 whole entry) above
Chain of FXR:RXRa (Q96RI1 whole entry, chain 1 of 2): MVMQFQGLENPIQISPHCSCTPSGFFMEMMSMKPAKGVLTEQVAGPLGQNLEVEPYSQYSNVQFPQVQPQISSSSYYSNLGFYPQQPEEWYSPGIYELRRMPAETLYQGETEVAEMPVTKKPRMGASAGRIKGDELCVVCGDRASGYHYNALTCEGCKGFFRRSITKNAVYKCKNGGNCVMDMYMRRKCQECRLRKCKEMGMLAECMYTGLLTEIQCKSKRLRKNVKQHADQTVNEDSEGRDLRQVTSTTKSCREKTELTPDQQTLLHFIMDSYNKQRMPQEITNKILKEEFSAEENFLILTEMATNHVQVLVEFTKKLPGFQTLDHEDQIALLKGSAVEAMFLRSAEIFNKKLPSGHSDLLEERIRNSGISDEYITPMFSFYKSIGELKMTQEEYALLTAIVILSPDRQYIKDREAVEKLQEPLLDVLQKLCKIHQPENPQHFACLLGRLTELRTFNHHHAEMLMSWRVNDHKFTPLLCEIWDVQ
Chain of FXR:RXRa (P19793 whole entry, chain 2 of 2): as the sequence (P19793 whole entry) above

B1: NRC3_wobSeed133_DR5_T12A_o1 (dsDNA)
DNA 1: GCCGTCCAAGGACAATGCTAGGTCAGTGAAAGCATTGCGATTGACAGCGTAGAATGAAGG
DNA 2: CCTTCATTCTACGCTGTCAATCGCAATGCTTTCACTGACCTAGCATTGTCCTTGGACGGC
binding signal (PPARg:RXRa): 0.18 PBM z-score against 500 random probes
binding signal (FXR:RXRa): 0.29 PBM z-score against 500 random probes

B2: NRC3_random_hg19_393_o1 (dsDNA)
DNA 1: GCTCCCAGCCACTCAGGAGGCTGAGGCAGGAGAATTGCGATTGACAGCGTAGAATGAAGG
DNA 2: CCTTCATTCTACGCTGTCAATCGCAATTCTCCTGCCTCAGCCTCCTGAGTGGCTGGGAGC
binding signal (PPARg:RXRa): -0.69 PBM z-score against 500 random probes
binding signal (FXR:RXRa): -1.65 PBM z-score against 500 random probes

B3: NRC3_wobSeed28_DR1_C4T_o1 (dsDNA)
DNA 1: GCCTTACTGGGCCAAAGGTCATTGATTCCAATGCTCGCGATTGACAGCGTAGAATGAAGG
DNA 2: CCTTCATTCTACGCTGTCAATCGCGAGCATTGGAATCAATGACCTTTGGCCCAGTAAGGC
binding signal (PPARg:RXRa): 12.9 PBM z-score against 500 random probes
binding signal (PPARa:RXRa): 7.1 PBM z-score against 500 random probes

B4: NRC3_wobSeed41_DR1_T13G_o1 (dsDNA)
DNA 1: GCATATGTAGGTGAAGGGTCATTCAGGTTGGTTCGCGCGATTGACAGCGTAGAATGAAGG
DNA 2: CCTTCATTCTACGCTGTCAATCGCGCGAACCAACCTGAATGACCCTTCACCTACATATGC
binding signal (PPARg:RXRa): 12.8 PBM z-score against 500 random probes
binding signal (PPARa:RXRa): 7.07 PBM z-score against 500 random probes

B5: NRC3_wobSeed40_DR1_A4G_o1 (dsDNA)
DNA 1: GCTGGCCTAGGTCATGGGCCAGTATACCACGCGAACGCGATTGACAGCGTAGAATGAAGG
DNA 2: CCTTCATTCTACGCTGTCAATCGCGTTCGCGTGGTATACTGGCCCATGACCTAGGCCAGC
binding signal (PPARg:RXRa): 3.34 PBM z-score against 500 random probes
binding signal (RARg:RXRa): 4.24 PBM z-score against 500 random probes

B6: NRC3_wobSeed15_DR0_G11T_o1 (dsDNA)
DNA 1: GCCGAACTAGTTCAAGGACAGTGAATCTCCGCACGCGCGATTGACAGCGTAGAATGAAGG
DNA 2: CCTTCATTCTACGCTGTCAATCGCGCGTGCGGAGATTCACTGTCCTTGAACTAGTTCGGC
binding signal (PPARg:RXRa): 0.49 PBM z-score against 500 random probes
binding signal (PPARa:RXRa): 0.44 PBM z-score against 500 random probes

B7: NRC3_wobSeed46_DR1_C6T_o1 (dsDNA)
DNA 1: GCTTATCAAGGTGAAAGGTCGTTGATGCACGCCTTGGCGATTGACAGCGTAGAATGAAGG
DNA 2: CCTTCATTCTACGCTGTCAATCGCCAAGGCGTGCATCAACGACCTTTCACCTTGATAAGC
binding signal (PPARg:RXRa): 10.9 PBM z-score against 500 random probes
binding signal (RARb:RXRa): 3.04 PBM z-score against 500 random probes

B8: NRC3_random_hg19_396_o1 (dsDNA)
DNA 1: GCTTGTTGTGGTTGATGTTGTTCACTCTCAGTCTCCGCGATTGACAGCGTAGAATGAAGG
DNA 2: CCTTCATTCTACGCTGTCAATCGCGGAGACTGAGAGTGAACAACATCAACCACAACAAGC
binding signal (PPARg:RXRa): -0.98 PBM z-score against 500 random probes
binding signal (RARb:RXRa): 0.5 PBM z-score against 500 random probes

B9: NRC3_random_hg19_197_o1 (dsDNA)
DNA 1: GCGCAACCTCTGCCTCTCAGGCTCAAGTGACCTTCCGCGATTGACAGCGTAGAATGAAGG
DNA 2: CCTTCATTCTACGCTGTCAATCGCGGAAGGTCACTTGAGCCTGAGAGGCAGAGGTTGCGC
binding signal (PPARg:RXRa): -0.35 PBM z-score against 500 random probes
binding signal (RARb:RXRa): 0.45 PBM z-score against 500 random probes
binding signal (RARg:RXRa): 0.42 PBM z-score against 500 random probes

B10: NRC3_random_hg19_404_o1 (dsDNA)
DNA 1: GCACTTCGTGATCTGCCTGCCTTAGCCTCCCAAAGTGCGATTGACAGCGTAGAATGAAGG
DNA 2: CCTTCATTCTACGCTGTCAATCGCACTTTGGGAGGCTAAGGCAGGCAGATCACGAAGTGC
binding signal (PPARg:RXRa): -1.16 PBM z-score against 500 random probes
binding signal (RARb:RXRa): -0.25 PBM z-score against 500 random probes

B11: NRC3_wobSeed39_DR1_A19G_o1 (dsDNA)
DNA 1: GCCGAACTAGGTCAAAGGGCAGTGAAAGGCGACGTAGCGATTGACAGCGTAGAATGAAGG
DNA 2: CCTTCATTCTACGCTGTCAATCGCTACGTCGCCTTTCACTGCCCTTTGACCTAGTTCGGC
binding signal (PPARg:RXRa): 12.3 PBM z-score against 500 random probes
binding signal (PPARa:RXRa): 6.69 PBM z-score against 500 random probes

B12: NRC3_random_hg19_399_o1 (dsDNA)
DNA 1: GCATGAGATTTCACTGTGTTAGCCAGGATGGTCTCCGCGATTGACAGCGTAGAATGAAGG
DNA 2: CCTTCATTCTACGCTGTCAATCGCGGAGACCATCCTGGCTAACACAGTGAAATCTCATGC
binding signal (RXRa): -0.2 PBM z-score against 500 random probes
binding signal (PPARg:RXRa): 0.22 PBM z-score against 500 random probes

B13: NRC3_random_hg19_278_o1 (dsDNA)
DNA 1: GCGCTACTTGGGAGGCTGAGATGGTAGAATCACTTGGCGATTGACAGCGTAGAATGAAGG
DNA 2: CCTTCATTCTACGCTGTCAATCGCCAAGTGATTCTACCATCTCAGCCTCCCAAGTAGCGC
binding signal (RXRa): -0.89 PBM z-score against 500 random probes
binding signal (PPARg:RXRa): -0.02 PBM z-score against 500 random probes

B14: NRC3_random_hg19_249_o1 (dsDNA)
DNA 1: GCTTTCCCACAATGTGTAGTTAGAGTTTGAGTTGTGGCGATTGACAGCGTAGAATGAAGG
DNA 2: CCTTCATTCTACGCTGTCAATCGCCACAACTCAAACTCTAACTACACATTGTGGGAAAGC
binding signal (PPARg:RXRa): -0.37 PBM z-score against 500 random probes
binding signal (RARg:RXRa): -0.1 PBM z-score against 500 random probes

B15: NRC3_random_hg19_62_o1 (dsDNA)
DNA 1: GCAGATGGGAGAGTTCCCTTGATTCCTTTGTGGGAGGCGATTGACAGCGTAGAATGAAGG
DNA 2: CCTTCATTCTACGCTGTCAATCGCCTCCCACAAAGGAATCAAGGGAACTCTCCCATCTGC
binding signal (PPARg:RXRa): -0.56 PBM z-score against 500 random probes
binding signal (PPARa:RXRa): -0.1 PBM z-score against 500 random probes

B16: NRC3_random_hg19_189_o1 (dsDNA)
DNA 1: GCATCTGCCTTGCTCTTTCTACCTTTCAGTGTCTTTGCGATTGACAGCGTAGAATGAAGG
DNA 2: CCTTCATTCTACGCTGTCAATCGCAAAGACACTGAAAGGTAGAAAGAGCAAGGCAGATGC
binding signal (RXRa): -0.72 PBM z-score against 500 random probes
binding signal (PPARg:RXRa): -1.57 PBM z-score against 500 random probes

B17: NRC3_random_hg19_447_o1 (dsDNA)
DNA 1: GCCTCTCTTTCTCTCTCTCTCTCTCTCTCTCTCTCTGCGATTGACAGCGTAGAATGAAGG
DNA 2: CCTTCATTCTACGCTGTCAATCGCAGAGAGAGAGAGAGAGAGAGAGAGAGAAAGAGAGGC
binding signal (PPARg:RXRa): -3.64 PBM z-score against 500 random probes
binding signal (RARg:RXRa): -0.31 PBM z-score against 500 random probes

B18: NRC3_wobSeed26_DR1_C4T_o1 (dsDNA)
DNA 1: GCTTTAGTTGGTCAAAGGTCACACACTCGAAATGCGGCGATTGACAGCGTAGAATGAAGG
DNA 2: CCTTCATTCTACGCTGTCAATCGCCGCATTTCGAGTGTGTGACCTTTGACCAACTAAAGC
binding signal (PPARg:RXRa): 12.1 PBM z-score against 500 random probes
binding signal (PPARa:RXRa): 6.88 PBM z-score against 500 random probes

B19: NRC3_wobSeed47_DR1_G8T_o1 (dsDNA)
DNA 1: GCGGAACTAGGGCAAAGTTGATAGCATCTGTCGACGGCGATTGACAGCGTAGAATGAAGG
DNA 2: CCTTCATTCTACGCTGTCAATCGCCGTCGACAGATGCTATCAACTTTGCCCTAGTTCCGC
binding signal (PPARg:RXRa): 10 PBM z-score against 500 random probes

B20: NRC3_wobSeed27_DR1_C6A_o1 (dsDNA)
DNA 1: GCACTAGGAGGACAAAGGTCAGAGCTACGCCAGTGAGCGATTGACAGCGTAGAATGAAGG
DNA 2: CCTTCATTCTACGCTGTCAATCGCTCACTGGCGTAGCTCTGACCTTTGTCCTCCTAGTGC
binding signal (PPARg:RXRa): 10 PBM z-score against 500 random probes

B21: NRC3_wobSeed1_DR0_A4T_o1 (dsDNA)
DNA 1: GCCTAACTAGGTCAAGGTCAAAGTCGGTTTGTGCCAGCGATTGACAGCGTAGAATGAAGG
DNA 2: CCTTCATTCTACGCTGTCAATCGCTGGCACAAACCGACTTTGACCTTGACCTAGTTAGGC
binding signal (PPARg:RXRa): 10 PBM z-score against 500 random probes

B22: NRC3_wobSeed1_DR0_C25A_o1 (dsDNA)
DNA 1: B21 DNA 1 with T4A, C25A
DNA 2: B21 DNA 2 with G36T, A57T
binding signal (PPARg:RXRa): 9.94 PBM z-score against 500 random probes

B23: NRC3_wobSeed32_DR1_T20C_o1 (dsDNA)
DNA 1: GCTCTTGTAGATCAAAGGTCAAGAAAGCCGAAGCCTGCGATTGACAGCGTAGAATGAAGG
DNA 2: CCTTCATTCTACGCTGTCAATCGCAGGCTTCGGCTTTCTTGACCTTTGATCTACAAGAGC
binding signal (PPARg:RXRa): 9.91 PBM z-score against 500 random probes

B24: NRC3_wobSeed66_DR2_C20T_o1 (dsDNA)
DNA 1: GCAATACAGGGTCACTAGGTCAGAGTAGGTACGAATGCGATTGACAGCGTAGAATGAAGG
DNA 2: CCTTCATTCTACGCTGTCAATCGCATTCGTACCTACTCTGACCTAGTGACCCTGTATTGC
binding signal (PPARg:RXRa): 9.89 PBM z-score against 500 random probes

B25: NRC3_wobSeed35_DR1_T11G_o1 (dsDNA)
DNA 1: GCGCTATTAGGTGAAAGGGCAACCGAATGATTCTCGGCGATTGACAGCGTAGAATGAAGG
DNA 2: CCTTCATTCTACGCTGTCAATCGCCGAGAATCATTCGGTTGCCCTTTCACCTAATAGCGC
binding signal (PPARg:RXRa): 9.85 PBM z-score against 500 random probes

B26: NRC3_wobSeed17_DR0_T13C_o1 (dsDNA)
DNA 1: GCATATGTAGGTCAGGGTCATTCAGAAAGTAGGGAAGCGATTGACAGCGTAGAATGAAGG
DNA 2: CCTTCATTCTACGCTGTCAATCGCTTCCCTACTTTCTGAATGACCCTGACCTACATATGC
binding signal (PPARg:RXRa): 9.79 PBM z-score against 500 random probes

B27: NRC3_wobSeed89_DR3_T13G_o1 (dsDNA)
DNA 1: GCCTATGTAGGTGAAGGGGGTCATTCAGTTTGAAAGGCGATTGACAGCGTAGAATGAAGG
DNA 2: CCTTCATTCTACGCTGTCAATCGCCTTTCAAACTGAATGACCCCCTTCACCTACATAGGC
binding signal (PPARg:RXRa): 9.64 PBM z-score against 500 random probes
